Test results taken from patent US20200263147A1.

Experiments:
[1] = target: UL37N, the N-terminal half (residues 1 to 496) of pseudorabies virus (PRV) UL37 (pseudorabies virus (PRV)); experiment: crystal structure, interface analysis calculated without the calcium ions
[2] = target: UL37N, the N-terminal half (residues 1 to 496) of pseudorabies virus (PRV) UL37 (pseudorabies virus (PRV)); experiment: crystal structure, interface analysis (PISA), calcium present

## UL37N, the N-terminal half (residues 1 to 496) of pseudorabies virus (PRV) UL37
[1]
  buried surface area: 1500 Å2
[2]
  buried surface area: 1730 Å2
